Results on ten molecules are retold here after patent publication US20260152571A1 (BIOCYTOGEN PHARMACEUTICALS BEIJING, published 2026).

Substitutions are numbered along the chain they refer to. Numbers in names are those of the source.

B1: ESK1 analog (antibody, V domains shown)
VH: QMQLVQSGAEVKEPGESLRISCKGSGYSFTNFWISWVRQMPGKGLEWMGRVDPGYSYSTYSPSFQGHVTISADKSTSTAYLQWNSLKASDTAMYYCARVQYSGYYDWFDPWGQGTLVTVSS
VL: not shown
notes: Fully human TCR-like monoclonal IgG1 antibody
B2: P01264-IgG1-SI (antibody, V domains shown)
VH: EVQLVESGGGLVKPGGSLRLSCAASGFTFSNAWMNWVRQAPGKGLEWVGRIKSKTDGGTTDYAAPVKGRFTISRHDSKNTLYLQMNSLKTEDTAVYYCATDPRIAVTGTDYYYGMDVWGQGTTVTVSS
VL: DIVMTQTPSFLSASVGDRVTITCRASQDISNYLNWYQQKPGKAPKLLIYDASNLETGVPSRFSGSGSGTDFTFTISSLQPEDIATYYCQQYDNLPITFGQGTRLEIK
notes: VH and VL joined to IgG1 constant regions with SI mutations (S239D and I332E, EU numbering) in the Fc
B3: 7B9-IgG1-SI (antibody, V domains shown)
VH: EVQLVESGGGVVQPGGSLRLSCAASGFTFDDYAMHWVRQAPGKGLEWVSLISGDDGSTYYADSMKGRITISRDNSKNSLYLQMNSLRTEDTAMYYCAKASYGSGSYLYNYGMDVWGQGTTVTVFS
VL: DIQLTQSPSSLSASVGDRVTITCQASQDIINYLNWYQQKPGKAPKLLIYDTSNLETGVPSRFSGSGSGTDFAFTINSLQPEDIATYYCQQFVNLPLTFGGGTKVEIK
notes: VH and VL joined to IgG1 constant regions with SI mutations (S239D and I332E, EU numbering) in the Fc; also called 7B9-IgGI-SI
B4: 3A6-IgG1-SI (antibody, V domains shown)
VH: QVQLQESGPGMVKPSETLSLTCTVSGGSISYNYWSWIRQPPGKGLEWIGYIYHSGTTKYNPSLKSRVTMSVDTSKNHFSLKLNSVTAADTAVYYCARHEDYWFFDLWGRGTLVTVSS
VL: DIQMTQSPSSLSASVGDRVTITCRASQGISNYLVWFQQKPGKAPKSLIYAASILQSGVPSKFSGSGSGTDFTLTINSLQPEDFATYYCQQYNTYPFTFGPGTKVDIK
notes: as for B2
B5: 4F10-IgG1-SI (antibody, V domains shown)
VH: QVQLQESGPGLVKPSETLSLTCTVSGGSISNYYWSWIRQPPGKGLEWIGYIYYSGSTNYNPSLKSRVNISVDTSKSQVSLKLNSVIAADTAVYYCARHEDYWYFDLWGRGTLVTVSS
VL: DIQLTQSPSSLSASIRDRVTITCRASQDINNYLAWFQQKPGKAPKSLIYAVSSLESGVPSKFSGSGSGTDFTLTISSLQPEDFATYFCQQYNSYPFTFGPGTKVEIK
notes: as for B2
B6: P01218-IgG1-SI (antibody, V domains shown)
VH: EVQLVESGGGVVQPGRSLRLSCAASGFTFSSYAMHWVRQAPGKGLEWVAVISYDGSNKYYADSVKGRFTISRDNSKNTLYLQMNSLRAEDTAVYYCARAPYYGSGSYYNSYYYYHGMDVWGQGTTVTVSS
VL: AIWMTQSPSSLSASVGDRVTITCQASQDISNYLNWYQQKPGKAPNLLIYDASNLETGVPSRFSGSGSGTDFTLTISSLQPEDIATYYCQQYDNLPLTFGGGTKVEIK
notes: VH and VL joined to IgG1 constant regions with SI mutations (S239D and I332E, EU numbering) in the Fc; also called P01218-IgGI-SI
B7: 1G7-IgG1-SI (antibody, V domains shown)
VH: QVQLVESGGGVVRPGGSLRLSCTASGFTFDDYGMTWVRQAPGKGLEWVSGINWNGGSTGYADSVKGRFTISRDNAKNSLFLQMNSLRAEDTALYYCARDQGIAVVGTHYYYYYGMDVWGQGTAVTVSS
VL: EIVLTQSPATLSLSPGERATLSCRASQSFSSYLAWYQQKPGQAPRLLIFDTSNRATGIPARFSGSGSGTDFTLTISSLEPEDFAVYYCQQRSNWPLTFGGGTKVEIK
notes: as for B2
B8: 1E9-IgG1-SI (antibody, V domains shown)
VH: EVQMVESGGDVVRPGGSLRLSCAASGFMFDDYGMSWVRHVQGKGLEWVSGIDWNGDSTGYADSVKGRFTISRDNAKNSLYLQMNSLRAEDTALYYCARDQGIAVAGPYNYYYGMDVWGQGTTVTVSS
VL: B7 VL with F29V, Q38E, T51A, L96F, G100P, K103R
notes: VH and VL joined to IgG1 constant regions with SI mutations (S239D and I332E, EU numbering) in the Fc; also called 1E9-IgGI-SI
B9: 3E6-IgG1-SI (antibody, V domains shown)
VH: EVQLVESGGGVVRPGGSLRLSCAASGFTFDDSGMSWVRQGPGKGLEWVSGINWNGGSTGYADSVKGRFTISRDNAKNSLYLQMNSLRAEDTALYYCARDPGIAVAGPYYYYYYGMDVWGQGTTVTVSS
VL: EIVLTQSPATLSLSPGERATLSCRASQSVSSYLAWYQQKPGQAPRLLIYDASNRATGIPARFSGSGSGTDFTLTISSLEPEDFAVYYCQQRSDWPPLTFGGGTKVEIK
notes: as for B2
B10: P01199-IgG1-SI (antibody, V domains shown)
VH: B2 VH with E1Q, A40T, T60K, H75D, K89N, A99S
VL: not shown
notes: as for B2

The first assay deals with WT1RMF/HLA-A2 complex on cells (human). The assay can be described thus: flow cytometry, T2 cells pulsed with 50 µM WT1RMF, antibody titrated 0.00096-45 nM, MFI curve.
B1: it took 4.04 nM to reach a half-maximal effect (EC50).
On the same count and under the same terms, then B2, with 0.896 nM; and B3, with 0.553 nM; and B4, with 2.26 nM.
On to B5, for which the EC50 was determined as 0.42 nM.
Take B6: the EC50 was 3.48 nM.
Same read-out and setting: in the case of B7 it was 0.337 nM; in that of B8, 0.798 nM.
B9: the concentration giving a half-maximal response (EC50) is 2.02 nM.

The next assay shares this target. The assay is described as follows: flow cytometry, T2 cells pulsed with 25 µM WT1RMF, antibody 10 µg/mL.
Take B1: the “Percentage of Positive Cells (%)” value is 88.8%.
B10: the “Percentage of Positive Cells (%)” value amounted to 88.5%.
Regarding B2, the “Percentage of Positive Cells (%)” value was 75.4%.
Same read-out and setting: then B3, with 93%.
Still for that read-out and setting: in the case of B4 it was 70.3%; in that of B5, 95.6%.
Consider B6, for which the “Percentage of Positive Cells (%)” value was determined as 92.8%.
On to B7, for which the “Percentage of Positive Cells (%)” value stood at 92.4%.
The same measure, in the same setting: then B8, with 94.9%.
Still for that read-out and setting: then B9, with 30.9%.

The target is the same in a further assay. The assay can be described thus: flow cytometry (MFI), T2 cells pulsed with 50 µM WT1RMF, antibody titrated.
Regarding B7, the “EC50 (read off the curve)” value is ~1 nM.

Another assay addresses His-tagged WT1RMF/HLA-A2 complex (human). The assay can be described thus: SPR, Biacore 8K; antibody captured on Protein A chip, His-tagged complex as analyte; 1:1 Langmuir fit.
As for B10, the Kd is 67.4 nM, the dissociation rate constant (koff) was 0.00987 s⁻¹ and the kon was determined as 147000 M⁻¹ s⁻¹.
Molecule B2 came in with a Kd of 121 nM, a koff of 0.0177 s⁻¹ and a kon of 146000 M⁻¹ s⁻¹.
On the same counts, the results for B3 are 15.3 nM, 0.00185 s⁻¹ and 121000 M⁻¹ s⁻¹.
In the same order, the values of B4 are 7100 nM, 0.0204 s⁻¹ and 2870 M⁻¹ s⁻¹.
On the same counts, the results for B5 are 0.43 nM, 0.000664 s⁻¹ and 1.54e+06 M⁻¹ s⁻¹.
For B6, binding was characterised by a dissociation constant (Kd) of 16.1 nM, the off-rate (koff) worked out at 0.000902 s⁻¹ and the kon came out at 56200 M⁻¹ s⁻¹.
On the same counts, the results for B7 are 9.49 nM, 0.00151 s⁻¹ and 159000 M⁻¹ s⁻¹.
On the same counts, the results for B8 are 22.4 nM, 0.00164 s⁻¹ and 73100 M⁻¹ s⁻¹.
In the same order, the values of B9 are 30.3 nM, 0.00451 s⁻¹ and 149000 M⁻¹ s⁻¹.
